Patent US20220411514A1, “ANTI-GAL3 ANTIBODIES AND METHODS OF USE FOR INSULIN RESISTANCE” (TrueBinding, Inc., priority 2021, published 2022)

B1: 20D11.2C6: anti-Gal3 antibody (antibody)
heavy: EVQLQQSGPELVKPGASVKISCKASGYTFTDFYINWVKQSHGKSLEWIGDINPKNGGINYNPKFKIKATLTVDKSSSTSYMDLRGLTSEDSAVYYCTSGYGFPYWGQGTLVTVSAAKTTPPSVYPLAPVCGDTTGSSVTLGCLVKGYFPEPVTLTWNSGSLSSGVHTFPAVLQSDLYTLSSSVTVTSSTWPSQSITCNVAHPASSTKVDKKIEPRGPTIKPCPPCKCPAPNAAGGPSVFIFPPKIKDVLMISLSPIVTCVVVDVSEDDPDVQISWFVNNVEVHTAQTQTHREDYNSTLRVVSALPIQHQDWMSGKEFKCKVNNKDLGAPIERTISKPKGSVRAPQVYVLPPPEEEMTKKQVTLTCMVTDFMPEDIYVEWTNNGKTELNYKNTEPVLDSDGSYFMYSKLRVEKKNWVERNSYSCSVVHEGLHNHHTTKSFSRTPGK
light: DIQMNQSPSSLSASLGDTITITCRASQNIYIWLSWYQQKPGNIPKLLIYKASNLHTGVPSRFSGSGSGTDFTLTISTLQPEDIATYFCLQGQSYPLTFGAGTKLEMKRADVAPTVSIFPPSSEQLTSGGASVVCFLNNFYPKDINVKWKIDGSERQNGVLNSWTDQDSKDSTYSMSSTLTLTKDEYERHNSYTCEATHKTSTSPIVKSFNRNEC
modifications: 20D11.2C6 heavy chain peptide sequence; 20D11.2C6 light chain peptide sequence
notes: anti-Gal3 antibody
B2: 19B5.2E6: anti-Gal3 antibody (antibody)
heavy: QIQLVQSGPELKKPGETVKISCKASGYTFTTYAMSWVKQAPGKGLKWMGWINTYSGVPTYADDLKGRFAFSLETSASTAYLQINNLKNEDTATYFCARGPYAMDYWGQGTSVTVSSAKTTPPSVYPLAPVCGDTTGSSVTLGCLVKGYFPEPVTLTWNSGSLSSGVHTFPAVLQSDLYTLSSSVTVTSSTWPSQSITCNVAHPASSTKVDKKIEPRGPTIKPCPPCKCPAPNAAGGPSVFIFPPKIKDVLMISLSPIVTCVVVDVSEDDPDVQISWFVNNVEVHTAQTQTHREDYNSTLRVVSALPIQHQDWMSGKEFKCKVNNKDLGAPIERTISKPKGSVRAPQVYVLPPPEEEMTKKQVTLTCMVTDFMPEDIYVEWTNNGKTELNYKNTEPVLDSDGSYFMYSKLRVEKKNWVERNSYSCSVVHEGLHNHHTTKSFSRTPGK
light: DIQMTQTTSSLSASLGDRVTISCSASQGINNYLNWYQQKPDGTVKLLIYYASSLHSGVPSRFSGSGSGTDYSLTISNLEPEDIATYYCQQYSQVPYTFGSGTKLEIKRADVAPTVSIFPPSSEQLTSGGASVVCFLNNFYPKDINVKWKIDGSERQNGVLNSWTDQDSKDSTYSMSSTLTLTKDEYERHNSYTCEATHKTSTSPIVKSFNRNEC
modifications: 19B5.2E6 heavy chain peptide sequence; 19B5.2E6/23H9.2E4 light chain peptide sequence
notes: anti-Gal3 antibody
B3: 23H9.2E4: anti-Gal3 antibody (antibody)
heavy: B2 heavy
light: B2 light
modifications: 23H9.2E4 heavy chain peptide sequence; 19B5.2E6/23H9.2E4 light chain peptide sequence
notes: anti-Gal3 antibody
B4: mTB001: anti-Gal3 antibody mTB001 (antibody)
heavy: QIQLVQSGPELKKPGETVKISCKASGYTFTNYGMNWVKQAPGKGLKWMGWINTNTGEPTYVEEFKGRFAFSLETSASTAYLQINNLKNEDTATYFCAPYDNFFAYWGQGTLVTVSAAKTTPPSVYPLAPVCGDTTGSSVTLGCLVKGYFPEPVTLTWNSGSLSSGVHTFPAVLQSDLYTLSSSVTVTSSTWPSQSITCNVAHPASSTKVDKKIEPRGPTIKPCPPCKCPAPNAAGGPSVFIFPPKIKDVLMISLSPIVTCVVVDVSEDDPDVQISWFVNNVEVHTAQTQTHREDYNSTLRVVSALPIQHQDWMSGKEFKCKVNNKDLGAPIERTISKPKGSVRAPQVYVLPPPEEEMTKKQVTLTCMVTDFMPEDIYVEWTNNGKTELNYKNTEPVLDSDGSYFMYSKLRVEKKNWVERNSYSCSVVHEGLHNHHTTKSFSRTPGK
light: DIVITQDELSNPVTSGESVSISCRSSKSLLYKDGKTYLNWFLQRPGQSPQLLIYLMSTHASGVSDRFSGSGSGTDFTLEISRVKAEDVGVYYCQQLVDYPLTFGAGTKLELKRADVAPTVSIFPPSSEQLTSGGASVVCFLNNFYPKDINVKWKIDGSERQNGVLNSWTDQDSKDSTYSMSSTLTLTKDEYERHNSYTCEATHKTSTSPIVKSFNRNEC
modifications: mTB001 heavy chain peptide sequence; mTB001 light chain peptide sequence

Assays:
Human Gal3 peptides = target: T1, Human Gal3 peptides (Homo sapiens, UniProt P17931); assay: Gal3 peptide binding ELISA (Example 8); conditions: antibody 5 μg/mL
T1 construct: purchased LifeTein custom order
Procedure, shortened: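 Reformatted hIgG4 (S228P) anti-Gal3 antibodies were tested at 5 μg/mL for 1 h at room temperature against immobilised human Gal3 peptides (≥100 μg/mL coating) or protein (1 μg/mL coating) on BSA-blocked plates. Bound antibody read by peroxidase goat anti-human IgG with TMB at 450 nm.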

hGal3 peptide = target: T2, hGal3 peptide (Homo sapiens, UniProt P17931); assay: Gal3 peptide library binding ELISA (Example 2)
T2 construct: a library of 24 amino acid peptides representing portions of Gal3
Procedure: To identify the epitopes to which Gal3 antibodies with and without Gal3-INSR blocking activity bound, a library of 24 amino acid peptides representing portions of Gal3, depicted in FIG. 18, was produced and the ability of each peptide to bind Gal3 antibodies was evaluated by ELISA. At least 2 μg/ml of hGal3 peptide in 50 μl of PBS or 0.1 μg/ml of full-length human Gal3 protein (GenScript) and human Galectin-3 protein (Acro Biosystems, GA3-H5129) were diluted in PBS (Corning, 21-030-CM) to concentrations of at least 2 μg/ml or 0.1 μg/ml, respectively, and added to the wells of a 96-well ELISA plate (Thermo Fisher, 44-2404-21). After incubating the plate at 4° C. overnight, the plate was washed three times with PBST (PBS with 0.05% Tween 20 [VWR, 0777]). The plate was then blocked for an hour with 2% BSA (EMD Millipore, 126609) in PBST at room temperature with gentle rocking. Thereafter, the 2% BSA in PBST was discarded and human Galectin-3 hybridoma supernatants or antibodies were diluted in 2% BSA in PBST to concentrations of at least 0.1 μg/ml and added to the wells. The plate was incubated for an hour at room temperature with gentle rocking and then washed three times with PBST. Afterwards, Goat Anti-Mouse IgG-HRP (Jackson ImmunoResearch, 115-036-1461) or Goat Anti-Rat IgG HRP (Abcam, ab205720) diluted in 2% BSA in PBST (1:4000) were added to the wells. The plate was incubated for 30 minutes to 1 hour at room temperature with gentle rocking and then washed three times with PBST. TMB substrate (Thermo Scientific, 34029) was then added to each well. The reaction was stopped with 1M HCl (JT Baker, 5620-02) and read using a plate reader (Molecular Devices) at absorbance of 450 nm.

Excerpt for NOD/ShiLtJ mice: To assess the therapeutic potential of anti-GAL3 antibody in Type I diabetes, a mouse model of diabetes type I was used. Briefly, seven-weeks-old female NOD/ShiLtJ mice (Jackson lab (001976)) and control group animals NOR/LtJ (Jackson Lab (002050)) were housed in standard disposable cages with filter tops at room temperature with a 6:00-18:00 day-night cycle. Mice were allowed to rest for a week before initiating glucose monitoring. The antibody treatment was initiated when glucose levels reach 250-400 (mg/dL) for two consecutive days. To establish glucose levels, the blood samples were collected from tail vein of the experimental animals following housing in clean cages with water and no food for 4-6 hours. The collected samples were analyzed by HemoCue Glucose 201 Analyzer and cuvettes (Mercedes Scientific 110706). The animals were dosed twice a week (10 mg/kg) with anti-GAL3 antibodies (mTB001) or PBS control. […] At the end stage, the plasma samples were collected from symptomatic animals. C-peptide levels were determined by Alpco Mouse C-peptide ELISA kit (Alpco, 80-CPTMS-E01).

Row | Molecule | binding to Gal3 peptide 1 (SEQ ID NO: 3) (Human Gal3 peptides) | binding to Gal3 peptide 7 (SEQ ID NO: 9) (Human Gal3 peptides) | binding to Gal3 peptide 8 (SEQ ID NO: 10) (Human Gal3 peptides) | binding to Gal3 peptide 1 (amino acids 1-20, SEQ ID NO: 3) (hGal3 peptide) | binding to Gal3 peptide 7 (amino acids 61-80, SEQ ID NO: 9) (hGal3 peptide) | binding to Gal3 peptide 6 (SEQ ID NO: 8) (Human Gal3 peptides) | blood glucose levels (NOD/ShiLtJ mice; 10 mg/kg twice a week) | survival (NOD/ShiLtJ mice; 10 mg/kg twice a week) | circulating C-peptide levels (NOD/ShiLtJ mice; end stage plasma)
1 | B1 | bound | bound | bound | bound | bound |  |  |  | 
2 | B2 | bound | bound |  | bound | bound |  |  |  | 
3 | B3 | bound | bound | bound | bound | bound | bound |  |  | 
4 | B4 |  |  |  |  |  |  | stabilizing the levels of blood glucose | prolonged survival | restoring C-peptide levels
